# Measured values from paper PMC9482650, “Quantitative fragmentomics allow affinity mapping of interactomes” (Nature Communications, 2022).
# T1: PTPN4, P29074
# T1 sequence (P29074 512-599, limits assumed, looked up): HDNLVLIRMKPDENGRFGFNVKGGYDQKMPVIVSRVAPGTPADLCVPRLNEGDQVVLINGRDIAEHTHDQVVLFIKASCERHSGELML
# T2: PDZD4, Q76G19
# T2 sequence (Q76G19 125-224, limits assumed, looked up): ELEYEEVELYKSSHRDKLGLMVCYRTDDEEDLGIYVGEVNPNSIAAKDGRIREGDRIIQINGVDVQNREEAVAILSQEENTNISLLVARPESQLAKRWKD
# T3: PDZD2_1, O15018
# T3 sequence (O15018 80-192, limits assumed, looked up): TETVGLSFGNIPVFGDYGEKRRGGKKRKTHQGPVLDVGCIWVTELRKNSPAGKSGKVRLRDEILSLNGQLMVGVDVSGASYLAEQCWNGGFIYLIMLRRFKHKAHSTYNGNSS
# T4: MPDZ_3, O75970
# T4 sequence (O75970 372-473, limits assumed, looked up): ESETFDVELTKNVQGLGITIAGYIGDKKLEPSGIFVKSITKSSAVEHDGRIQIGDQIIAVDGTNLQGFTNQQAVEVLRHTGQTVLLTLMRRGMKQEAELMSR
# T5: DVL1, O14640
# T5 sequence (O14640 246-333, limits assumed, looked up): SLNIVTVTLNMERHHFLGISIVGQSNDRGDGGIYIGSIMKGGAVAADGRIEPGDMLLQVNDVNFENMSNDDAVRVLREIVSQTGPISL
# T6: PDZD7_1, Q9H5P4
# T6 sequence (Q9H5P4 81-178, limits assumed, looked up): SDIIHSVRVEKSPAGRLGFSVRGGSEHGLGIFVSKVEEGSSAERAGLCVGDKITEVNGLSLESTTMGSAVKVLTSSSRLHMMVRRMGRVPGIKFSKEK
# T7: MPP5, Q8N3R9
# T7 sequence (Q8N3R9 251-346, limits assumed, looked up): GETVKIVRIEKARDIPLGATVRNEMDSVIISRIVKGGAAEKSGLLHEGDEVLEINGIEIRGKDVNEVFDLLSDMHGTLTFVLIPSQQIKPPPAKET
# T8: MAGI2_1, Q86UL8
# T8 sequence (Q86UL8 12-111, limits assumed, looked up): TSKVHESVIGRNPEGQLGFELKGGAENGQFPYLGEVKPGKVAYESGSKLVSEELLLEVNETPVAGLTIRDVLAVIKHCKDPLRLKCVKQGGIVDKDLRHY
# T9: SHANK3, Q9BYB0
# T9 sequence (Q9BYB0 641-750, limits assumed, looked up): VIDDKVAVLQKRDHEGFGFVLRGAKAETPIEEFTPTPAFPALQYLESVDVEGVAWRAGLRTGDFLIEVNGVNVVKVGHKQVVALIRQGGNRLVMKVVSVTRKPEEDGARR
# T10: SIPA1L3, O60292
# T10 sequence (O60292 961-1052, limits assumed, looked up): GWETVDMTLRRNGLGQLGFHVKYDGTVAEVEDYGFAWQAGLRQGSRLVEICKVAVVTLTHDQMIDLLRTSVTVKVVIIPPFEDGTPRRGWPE
# T11: TJP3_1, O95049
# T11 sequence (O95049 6-103, limits assumed, looked up): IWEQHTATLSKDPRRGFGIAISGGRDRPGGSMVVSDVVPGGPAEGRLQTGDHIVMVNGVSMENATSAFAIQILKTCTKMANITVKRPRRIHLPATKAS
# T12: PTPN13_4, Q12923
# T12 sequence (Q12923 1783-1878, limits assumed, looked up): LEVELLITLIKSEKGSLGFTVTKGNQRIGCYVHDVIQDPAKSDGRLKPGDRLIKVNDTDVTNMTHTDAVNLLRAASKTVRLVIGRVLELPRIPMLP
# B1: DGKK, Q5KSL6 (peptide)
# chain: DPLTPSRSQL
# B2: DGKZ, Q13574 (peptide)
# chain: IQREDQETAV
# B3: ARHGEF16, Q5VV41 (peptide)
# chain: MERLRVETDV
# B4: HTLV1-TAX1, P03409 (peptide)
# chain: SEKHFRETEV
# B5: PBK, Q96KB5 (peptide)
# chain: HIVEALETDV
# Target: NHERF4_3, Q86UT5
# Sequence (Q86UT5 325-412): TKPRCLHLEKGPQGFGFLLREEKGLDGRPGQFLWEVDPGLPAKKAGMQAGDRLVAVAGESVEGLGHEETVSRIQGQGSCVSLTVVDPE
# Assay: holdup assay
# Parameters: key: below the threshold = too weak to quantify, mostly under pKd 3.1 to 4
# Conditions: plain residues with an end cap or a label only (N-terminal biotin on a linker: ttds)
row,Binder,pKd
1,B1,below the threshold
2,B2,below the threshold
3,B3,below the threshold
4,B4,3.83
5,B5,below the threshold

# Target: T1, PTPN4, P29074
# Assay: holdup assay
# Parameters: key: below the threshold = too weak to quantify, mostly under pKd 3.1 to 4
# Conditions: plain residues with an end cap or a label only (N-terminal biotin on a linker: ttds)
row,Binder,pKd
1,B1,below the threshold
2,B2,4.8
3,B3,4.25
4,B4,4.77
5,B5,below the threshold

# Target: SCRIB_4, Q14160
# Sequence (Q14160 1095-1204): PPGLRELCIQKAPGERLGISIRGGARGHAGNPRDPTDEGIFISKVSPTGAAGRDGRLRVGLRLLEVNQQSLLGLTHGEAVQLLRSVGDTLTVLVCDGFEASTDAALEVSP
# Assay: holdup assay
# Parameters: key: below the threshold = too weak to quantify, mostly under pKd 3.1 to 4
# Conditions: plain residues with an end cap or a label only (N-terminal biotin on a linker: ttds)
row,Binder,pKd
1,B1,below the threshold
2,B2,4.4
3,B3,below the threshold
4,B4,4.43
5,B5,below the threshold

# Target: T2, PDZD4, Q76G19
# Assay: holdup assay
# Parameters: key: below the threshold = too weak to quantify, mostly under pKd 3.1 to 4
# Conditions: plain residues with an end cap or a label only (N-terminal biotin on a linker: ttds)
row,Binder,pKd
1,B1,below the threshold
2,B2,below the threshold
3,B3,below the threshold
4,B4,below the threshold
5,B5,below the threshold

# Target: T3, PDZD2_1, O15018
# Assay: holdup assay
# Parameters: key: below the threshold = too weak to quantify, mostly under pKd 3.1 to 4
# Conditions: plain residues with an end cap or a label only (N-terminal biotin on a linker: ttds)
row,Binder,pKd
1,B1,below the threshold
2,B2,below the threshold
3,B3,below the threshold
4,B4,below the threshold
5,B5,below the threshold

# Target: PARD3B_3, Q8TEW8
# Sequence (Q8TEW8 490-594): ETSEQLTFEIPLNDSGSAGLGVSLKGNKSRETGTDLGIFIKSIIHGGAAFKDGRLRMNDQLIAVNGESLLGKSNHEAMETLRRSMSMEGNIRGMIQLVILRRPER
# Assay: holdup assay
# Parameters: key: below the threshold = too weak to quantify, mostly under pKd 3.1 to 4
# Conditions: plain residues with an end cap or a label only (N-terminal biotin on a linker: ttds)
row,Binder,pKd
1,B1,below the threshold
2,B2,below the threshold
3,B3,below the threshold
4,B4,below the threshold
5,B5,below the threshold

# Target: T4, MPDZ_3, O75970
# Assay: holdup assay
# Parameters: key: below the threshold = too weak to quantify, mostly under pKd 3.1 to 4
# Conditions: plain residues with an end cap or a label only (N-terminal biotin on a linker: ttds)
row,Binder,pKd
1,B1,below the threshold
2,B2,below the threshold
3,B3,below the threshold
4,B4,3.92
5,B5,below the threshold

# Target: T5, DVL1, O14640
# Assay: holdup assay
# Parameters: key: below the threshold = too weak to quantify, mostly under pKd 3.1 to 4
# Conditions: plain residues with an end cap or a label only (N-terminal biotin on a linker: ttds)
row,Binder,pKd
1,B1,below the threshold
2,B2,below the threshold
3,B3,below the threshold
4,B4,below the threshold
5,B5,below the threshold

# Target: DLG5_2, Q8TDM6
# Sequence (Q8TDM6 714-800): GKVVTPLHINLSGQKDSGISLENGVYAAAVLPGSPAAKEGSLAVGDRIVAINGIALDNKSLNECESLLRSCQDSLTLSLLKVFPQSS
# Assay: holdup assay
# Parameters: key: below the threshold = too weak to quantify, mostly under pKd 3.1 to 4
# Conditions: plain residues with an end cap or a label only (N-terminal biotin on a linker: ttds)
row,Binder,pKd
1,B1,below the threshold
2,B2,below the threshold
3,B3,below the threshold
4,B4,5.06
5,B5,below the threshold

# Target: T6, PDZD7_1, Q9H5P4
# Assay: holdup assay
# Parameters: key: below the threshold = too weak to quantify, mostly under pKd 3.1 to 4
# Conditions: plain residues with an end cap or a label only (N-terminal biotin on a linker: ttds)
row,Binder,pKd
1,B1,below the threshold
2,B2,below the threshold
3,B3,below the threshold
4,B4,3.85
5,B5,below the threshold

# Target: T7, MPP5, Q8N3R9
# Assay: holdup assay
# Parameters: key: below the threshold = too weak to quantify, mostly under pKd 3.1 to 4
# Conditions: plain residues with an end cap or a label only (N-terminal biotin on a linker: ttds)
row,Binder,pKd
1,B1,below the threshold
2,B2,below the threshold
3,B3,below the threshold
4,B4,below the threshold
5,B5,below the threshold

# Target: MAST3, O60307
# Sequence (O60307 945-1048): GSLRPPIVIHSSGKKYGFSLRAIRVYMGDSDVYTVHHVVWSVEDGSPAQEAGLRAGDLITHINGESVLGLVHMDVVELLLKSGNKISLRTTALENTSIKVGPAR
# Assay: holdup assay
# Parameters: key: below the threshold = too weak to quantify, mostly under pKd 3.1 to 4
# Conditions: plain residues with an end cap or a label only (N-terminal biotin on a linker: ttds)
row,Binder,pKd
1,B1,below the threshold
2,B2,below the threshold
3,B3,below the threshold
4,B4,below the threshold
5,B5,below the threshold

# Target: AHNAK2, Q8IVF2
# Sequence (Q8IVF2 108-193): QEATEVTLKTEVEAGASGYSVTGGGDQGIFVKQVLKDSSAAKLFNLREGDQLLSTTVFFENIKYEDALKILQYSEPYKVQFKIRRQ
# Assay: holdup assay
# Parameters: key: below the threshold = too weak to quantify, mostly under pKd 3.1 to 4
# Conditions: plain residues with an end cap or a label only (N-terminal biotin on a linker: ttds)
row,Binder,pKd
1,B1,below the threshold
2,B2,below the threshold
3,B3,below the threshold
4,B4,below the threshold
5,B5,below the threshold

# Target: Inadl_7, Q8NI35
# Sequence (Q8NI35 1219-1332): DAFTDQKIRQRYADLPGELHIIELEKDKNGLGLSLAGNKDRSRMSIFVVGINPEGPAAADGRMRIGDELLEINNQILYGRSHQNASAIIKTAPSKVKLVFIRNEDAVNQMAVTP
# Assay: holdup assay
# Parameters: key: below the threshold = too weak to quantify, mostly under pKd 3.1 to 4
# Conditions: plain residues with an end cap or a label only (N-terminal biotin on a linker: ttds)
row,Binder,pKd
1,B1,below the threshold
2,B2,below the threshold
3,B3,below the threshold
4,B4,below the threshold
5,B5,4.4

# Target: T8, MAGI2_1, Q86UL8
# Assay: holdup assay
# Parameters: key: below the threshold = too weak to quantify, mostly under pKd 3.1 to 4
# Conditions: plain residues with an end cap or a label only (N-terminal biotin on a linker: ttds)
row,Binder,pKd
1,B1,below the threshold
2,B2,below the threshold
3,B3,below the threshold
4,B4,below the threshold
5,B5,below the threshold

# Target: T9, SHANK3, Q9BYB0
# Assay: holdup assay
# Parameters: key: below the threshold = too weak to quantify, mostly under pKd 3.1 to 4
# Conditions: plain residues with an end cap or a label only (N-terminal biotin on a linker: ttds)
row,Binder,pKd
1,B1,below the threshold
2,B2,below the threshold
3,B3,below the threshold
4,B4,below the threshold
5,B5,below the threshold

# Target: MAGI3_4, Q5TCQ9
# Sequence (Q5TCQ9 716-815): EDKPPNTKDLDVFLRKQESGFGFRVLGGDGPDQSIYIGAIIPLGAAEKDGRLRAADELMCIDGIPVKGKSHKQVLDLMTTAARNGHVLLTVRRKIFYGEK
# Assay: holdup assay
# Parameters: key: below the threshold = too weak to quantify, mostly under pKd 3.1 to 4
# Conditions: plain residues with an end cap or a label only (N-terminal biotin on a linker: ttds)
row,Binder,pKd
1,B1,below the threshold
2,B2,below the threshold
3,B3,below the threshold
4,B4,3.79
5,B5,below the threshold

# Target: MAGIX, Q9H6Y5
# Sequence (Q9H6Y5 118-211): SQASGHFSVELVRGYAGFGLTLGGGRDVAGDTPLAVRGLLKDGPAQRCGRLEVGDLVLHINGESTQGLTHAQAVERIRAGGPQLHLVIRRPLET
# Assay: holdup assay
# Parameters: key: below the threshold = too weak to quantify, mostly under pKd 3.1 to 4
# Conditions: plain residues with an end cap or a label only (N-terminal biotin on a linker: ttds)
row,Binder,pKd
1,B1,below the threshold
2,B2,below the threshold
3,B3,below the threshold
4,B4,below the threshold
5,B5,below the threshold

# Target: T10, SIPA1L3, O60292
# Assay: holdup assay
# Parameters: key: below the threshold = too weak to quantify, mostly under pKd 3.1 to 4
# Conditions: plain residues with an end cap or a label only (N-terminal biotin on a linker: ttds)
row,Binder,pKd
1,B1,below the threshold
2,B2,below the threshold
3,B3,below the threshold
4,B4,below the threshold
5,B5,below the threshold

# Target: GRIP2_2, Q9C0E4
# Sequence (Q9C0E4 137-245): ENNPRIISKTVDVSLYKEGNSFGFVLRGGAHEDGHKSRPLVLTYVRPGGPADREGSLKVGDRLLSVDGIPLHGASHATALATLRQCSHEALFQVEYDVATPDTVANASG
# Assay: holdup assay
# Parameters: key: below the threshold = too weak to quantify, mostly under pKd 3.1 to 4
# Conditions: plain residues with an end cap or a label only (N-terminal biotin on a linker: ttds)
row,Binder,pKd
1,B1,below the threshold
2,B2,below the threshold
3,B3,below the threshold
4,B4,below the threshold
5,B5,below the threshold

# Target: MAGI1_5, Q96QZ7
# Sequence (Q96QZ7 986-1098): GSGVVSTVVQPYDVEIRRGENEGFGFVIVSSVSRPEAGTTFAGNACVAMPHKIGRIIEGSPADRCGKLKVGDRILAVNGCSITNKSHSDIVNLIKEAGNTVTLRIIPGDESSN
# Assay: holdup assay
# Parameters: key: below the threshold = too weak to quantify, mostly under pKd 3.1 to 4
# Conditions: plain residues with an end cap or a label only (N-terminal biotin on a linker: ttds)
row,Binder,pKd
1,B1,below the threshold
2,B2,5.06
3,B3,below the threshold
4,B4,5.22
5,B5,below the threshold

# Target: CARD14, Q9BXL6
# Sequence (Q9BXL6 558-663): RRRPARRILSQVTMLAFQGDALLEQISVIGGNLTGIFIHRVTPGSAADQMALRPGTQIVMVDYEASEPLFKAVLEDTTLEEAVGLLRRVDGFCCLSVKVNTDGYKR
# Assay: holdup assay
# Parameters: key: below the threshold = too weak to quantify, mostly under pKd 3.1 to 4
# Conditions: plain residues with an end cap or a label only (N-terminal biotin on a linker: ttds)
row,Binder,pKd
1,B1,below the threshold
2,B2,below the threshold
3,B3,below the threshold
4,B4,below the threshold
5,B5,below the threshold

# Target: T11, TJP3_1, O95049
# Assay: holdup assay
# Parameters: key: below the threshold = too weak to quantify, mostly under pKd 3.1 to 4
# Conditions: plain residues with an end cap or a label only (N-terminal biotin on a linker: ttds)
row,Binder,pKd
1,B1,below the threshold
2,B2,below the threshold
3,B3,below the threshold
4,B4,below the threshold
5,B5,below the threshold

# Target: MAGI3_6, Q5TCQ9
# Sequence (Q5TCQ9 1014-1103): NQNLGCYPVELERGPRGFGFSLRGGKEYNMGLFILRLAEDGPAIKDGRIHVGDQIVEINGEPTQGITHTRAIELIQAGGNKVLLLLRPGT
# Assay: holdup assay
# Parameters: key: below the threshold = too weak to quantify, mostly under pKd 3.1 to 4
# Conditions: plain residues with an end cap or a label only (N-terminal biotin on a linker: ttds)
row,Binder,pKd
1,B1,below the threshold
2,B2,below the threshold
3,B3,below the threshold
4,B4,4.54
5,B5,4.62

# Target: T12, PTPN13_4, Q12923
# Assay: holdup assay
# Parameters: key: below the threshold = too weak to quantify, mostly under pKd 3.1 to 4
# Conditions: plain residues with an end cap or a label only (N-terminal biotin on a linker: ttds)
row,Binder,pKd
1,B1,below the threshold
2,B2,below the threshold
3,B3,below the threshold
4,B4,below the threshold
5,B5,below the threshold
